T1: ACAD9 (non-tagged wild type) (human, UniProt Q9H845 38-621)
T1 sequence: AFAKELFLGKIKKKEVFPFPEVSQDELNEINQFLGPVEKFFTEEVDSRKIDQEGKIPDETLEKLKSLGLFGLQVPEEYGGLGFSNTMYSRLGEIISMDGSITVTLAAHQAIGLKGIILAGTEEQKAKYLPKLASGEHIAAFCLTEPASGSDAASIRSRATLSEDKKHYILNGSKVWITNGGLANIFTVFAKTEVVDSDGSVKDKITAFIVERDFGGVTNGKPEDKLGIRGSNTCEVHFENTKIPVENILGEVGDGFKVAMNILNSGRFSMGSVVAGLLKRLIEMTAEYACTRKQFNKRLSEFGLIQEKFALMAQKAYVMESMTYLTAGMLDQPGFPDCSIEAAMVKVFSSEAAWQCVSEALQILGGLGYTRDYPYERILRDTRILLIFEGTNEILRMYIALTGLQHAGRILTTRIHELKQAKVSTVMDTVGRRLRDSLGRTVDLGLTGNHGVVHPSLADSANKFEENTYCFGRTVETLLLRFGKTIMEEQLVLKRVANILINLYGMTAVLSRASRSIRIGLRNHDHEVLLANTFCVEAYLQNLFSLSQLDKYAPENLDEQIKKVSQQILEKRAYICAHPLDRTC

B1: ACAD9-His6 (wild type ACAD9 with a C-terminal His-tag) (enzyme)
chain: AFAKELFLGKIKKKEVFPFPEVSQDELNEINQFLGPVEKFFTEEVDSRKIDQEGKIPDETLEKLKSLGLFGLQVPEEYGGLGFSNTMYSRLGEIISMDGSITVTLAAHQAIGLKGIILAGTEEQKAKYLPKLASGEHIAAFCLTEPASGSDAASIRSRATLSEDKKHYILNGSKVWITNGGLANIFTVFAKTEVVDSDGSVKDKITAFIVERDFGGVTNGKPEDKLGIRGSNTCEVHFENTKIPVENILGEVGDGFKVAMNILNSGRFSMGSVVAGLLKRLIEMTAEYACTRKQFNKRLSEFGLIQEKFALMAQKAYVMESMTYLTAGMLDQPGFPDCSIEAAMVKVFSSEAAWQCVSEALQILGGLGYTRDYPYERILRDTRILLIFEGTNEILRMYIALTGLQHAGRILTTRIHELKQAKVSTVMDTVGRRLRDSLGRTVDLGLTGNHGVVHPSLADSANKFEENTYCFGRTVETLLLRFGKTIMEEQLVLKRVANILINLYGMTAVLSRASRSIRIGLRNHDHEVLLANTFCVEAYLQNLFSLSQLDKYAPENLDEQIKKVSQQILEKRAYICAHPLDRTC

Each binder was assayed against T1, ACAD9 (non-tagged wild type) (assay: SEC).

| Binder | stoichiometry N |
| --- | --- |
| His6-C-ECSIT (C-terminal domain of ECSIT, Leu249-Ser431, with N-terminal His tag) (domain or fragment) LPKDSTGAADPPQPHIVGIQSPDQQAALARHNPARPVFVEGPFSLWLRNKCVYYHILRADLLPPEEREVEETPEEWNLYYPMQLDLEYVRSGWDNYEFDINEVEEGPVFAMCMAGAHDQATMAKWIQGLQETNPTLAQIPVVFRLAGSTRELQTSSAGLEEPPLPEDHQEEDDNLQRQQQGQS | 1 C-ECSIT monomer per ACAD9 monomer (4:4) |

Target: the molecule itself
Test: SEC

| Binder | stoichiometry N |
| --- | --- |
| His6-C-ECSIT (C-terminal domain of ECSIT, Leu249-Ser431, with N-terminal His tag) (domain or fragment) LPKDSTGAADPPQPHIVGIQSPDQQAALARHNPARPVFVEGPFSLWLRNKCVYYHILRADLLPPEEREVEETPEEWNLYYPMQLDLEYVRSGWDNYEFDINEVEEGPVFAMCMAGAHDQATMAKWIQGLQETNPTLAQIPVVFRLAGSTRELQTSSAGLEEPPLPEDHQEEDDNLQRQQQGQS | 4 |
| ACAD9-His6 R469W (enzyme) AFAKELFLGKIKKKEVFPFPEVSQDELNEINQFLGPVEKFFTEEVDSRKIDQEGKIPDETLEKLKSLGLFGLQVPEEYGGLGFSNTMYSRLGEIISMDGSITVTLAAHQAIGLKGIILAGTEEQKAKYLPKLASGEHIAAFCLTEPASGSDAASIRSRATLSEDKKHYILNGSKVWITNGGLANIFTVFAKTEVVDSDGSVKDKITAFIVERDFGGVTNGKPEDKLGIRGSNTCEVHFENTKIPVENILGEVGDGFKVAMNILNSGRFSMGSVVAGLLKRLIEMTAEYACTRKQFNKRLSEFGLIQEKFALMAQKAYVMESMTYLTAGMLDQPGFPDCSIEAAMVKVFSSEAAWQCVSEALQILGGLGYTRDYPYERILRDTRILLIFEGTNEILRMYIALTGLQHAGRILTTRIHELKQAKVSTVMDTVGWRLRDSLGRTVDLGLTGNHGVVHPSLADSANKFEENTYCFGRTVETLLLRFGKTIMEEQLVLKRVANILINLYGMTAVLSRASRSIRIGLRNHDHEVLLANTFCVEAYLQNLFSLSQLDKYAPENLDEQIKKVSQQILEKRAYICAHPLDRTC | 2 |
| ACAD9-His6 R532W (enzyme) AFAKELFLGKIKKKEVFPFPEVSQDELNEINQFLGPVEKFFTEEVDSRKIDQEGKIPDETLEKLKSLGLFGLQVPEEYGGLGFSNTMYSRLGEIISMDGSITVTLAAHQAIGLKGIILAGTEEQKAKYLPKLASGEHIAAFCLTEPASGSDAASIRSRATLSEDKKHYILNGSKVWITNGGLANIFTVFAKTEVVDSDGSVKDKITAFIVERDFGGVTNGKPEDKLGIRGSNTCEVHFENTKIPVENILGEVGDGFKVAMNILNSGRFSMGSVVAGLLKRLIEMTAEYACTRKQFNKRLSEFGLIQEKFALMAQKAYVMESMTYLTAGMLDQPGFPDCSIEAAMVKVFSSEAAWQCVSEALQILGGLGYTRDYPYERILRDTRILLIFEGTNEILRMYIALTGLQHAGRILTTRIHELKQAKVSTVMDTVGRRLRDSLGRTVDLGLTGNHGVVHPSLADSANKFEENTYCFGRTVETLLLRFGKTIMEEQLVLKWVANILINLYGMTAVLSRASRSIRIGLRNHDHEVLLANTFCVEAYLQNLFSLSQLDKYAPENLDEQIKKVSQQILEKRAYICAHPLDRTC | 2 |
| ACAD9-His6 E426Q (enzyme) AFAKELFLGKIKKKEVFPFPEVSQDELNEINQFLGPVEKFFTEEVDSRKIDQEGKIPDETLEKLKSLGLFGLQVPEEYGGLGFSNTMYSRLGEIISMDGSITVTLAAHQAIGLKGIILAGTEEQKAKYLPKLASGEHIAAFCLTEPASGSDAASIRSRATLSEDKKHYILNGSKVWITNGGLANIFTVFAKTEVVDSDGSVKDKITAFIVERDFGGVTNGKPEDKLGIRGSNTCEVHFENTKIPVENILGEVGDGFKVAMNILNSGRFSMGSVVAGLLKRLIEMTAEYACTRKQFNKRLSEFGLIQEKFALMAQKAYVMESMTYLTAGMLDQPGFPDCSIEAAMVKVFSSEAAWQCVSEALQILGGLGYTRDYPYERILRDTRILLIFQGTNEILRMYIALTGLQHAGRILTTRIHELKQAKVSTVMDTVGRRLRDSLGRTVDLGLTGNHGVVHPSLADSANKFEENTYCFGRTVETLLLRFGKTIMEEQLVLKRVANILINLYGMTAVLSRASRSIRIGLRNHDHEVLLANTFCVEAYLQNLFSLSQLDKYAPENLDEQIKKVSQQILEKRAYICAHPLDRTC | 2 |
| ACAD9-His6 R518H (enzyme) AFAKELFLGKIKKKEVFPFPEVSQDELNEINQFLGPVEKFFTEEVDSRKIDQEGKIPDETLEKLKSLGLFGLQVPEEYGGLGFSNTMYSRLGEIISMDGSITVTLAAHQAIGLKGIILAGTEEQKAKYLPKLASGEHIAAFCLTEPASGSDAASIRSRATLSEDKKHYILNGSKVWITNGGLANIFTVFAKTEVVDSDGSVKDKITAFIVERDFGGVTNGKPEDKLGIRGSNTCEVHFENTKIPVENILGEVGDGFKVAMNILNSGRFSMGSVVAGLLKRLIEMTAEYACTRKQFNKRLSEFGLIQEKFALMAQKAYVMESMTYLTAGMLDQPGFPDCSIEAAMVKVFSSEAAWQCVSEALQILGGLGYTRDYPYERILRDTRILLIFEGTNEILRMYIALTGLQHAGRILTTRIHELKQAKVSTVMDTVGRRLRDSLGRTVDLGLTGNHGVVHPSLADSANKFEENTYCFGRTVETLLLHFGKTIMEEQLVLKRVANILINLYGMTAVLSRASRSIRIGLRNHDHEVLLANTFCVEAYLQNLFSLSQLDKYAPENLDEQIKKVSQQILEKRAYICAHPLDRTC | 2 |
| B1 | 2 |
| Loop12-ACAD9 (ACAD9-His6 with the linker between Thr450 and Asp480 replaced by 12 residues of GGS repeats) (enzyme) AFAKELFLGKIKKKEVFPFPEVSQDELNEINQFLGPVEKFFTEEVDSRKIDQEGKIPDETLEKLKSLGLFGLQVPEEYGGLGFSNTMYSRLGEIISMDGSITVTLAAHQAIGLKGIILAGTEEQKAKYLPKLASGEHIAAFCLTEPASGSDAASIRSRATLSEDKKHYILNGSKVWITNGGLANIFTVFAKTEVVDSDGSVKDKITAFIVERDFGGVTNGKPEDKLGIRGSNTCEVHFENTKIPVENILGEVGDGFKVAMNILNSGRFSMGSVVAGLLKRLIEMTAEYACTRKQFNKRLSEFGLIQEKFALMAQKAYVMESMTYLTAGMLDQPGFPDCSIEAAMVKVFSSEAAWQCVSEALQILGGLGYTRDYPYERILRDTRILLIFEGTNEILRMYIALTGLQHAGRILTTGGSGGSGGSGGSDLGLTGNHGVVHPSLADSANKFEENTYCFGRTVETLLLRFGKTIMEEQLVLKRVANILINLYGMTAVLSRASRSIRIGLRNHDHEVLLANTFCVEAYLQNLFSLSQLDKYAPENLDEQIKKVSQQILEKRAYICAHPLDRTC | 2 |

The binders below were run against B1 (assay: pull-down).

| Binder | stoichiometry N |
| --- | --- |
| C-ECSIT, tag-free (C-terminal domain of ECSIT, Leu249-Ser431) (domain or fragment) LPKDSTGAADPPQPHIVGIQSPDQQAALARHNPARPVFVEGPFSLWLRNKCVYYHILRADLLPPEEREVEETPEEWNLYYPMQLDLEYVRSGWDNYEFDINEVEEGPVFAMCMAGAHDQATMAKWIQGLQETNPTLAQIPVVFRLAGSTRELQTSSAGLEEPPLPEDHQEEDDNLQRQQQGQS | ~1 monomer:monomer |
| ECSIT, tag-free (mature human mitochondrial ECSIT) (natural protein) SSEQSLVPSPPEPRQRPTKALVPFEDLFGQAPGGERDKASFLQTVQKFAEHSVRKRGHIDFIYLALRKMREYGVERDLAVYNQLLNIFPKEVFRPRNIIQRIFVHYPRQQECGIAVLEQMENHGVMPNKETEFLLIQIFGRKSYPMLKLVRLKLWFPRFMNVNPFPVPRDLPQDPVELAMFGLRHMEPDLSARVTIYQVPLPKDSTGAADPPQPHIVGIQSPDQQAALARHNPARPVFVEGPFSLWLRNKCVYYHILRADLLPPEEREVEETPEEWNLYYPMQLDLEYVRSGWDNYEFDINEVEEGPVFAMCMAGAHDQATMAKWIQGLQETNPTLAQIPVVFRLAGSTRELQTSSAGLEEPPLPEDHQEEDDNLQRQQQGQS | ~1 monomer:monomer |

— publication PMC8497999 (iScience, 2021)
